Data reported in article PMC11561318 (Nature Communications, 2024).

Tests used:
[1] = molecular target: His-tagged NanoLuc-PP1α-HaloTag sensor (PP1-WT) (human, UniProt P62136 1-330, NanoBRET 618 ligand on the HaloTag); assay: FRET or BRET
LgBiT-PP1α^WT = LgBiT-PP1α^WT (human, UniProt P62136 1-330); assay: split reporter
LgBiT-PP1α^ΔC = LgBiT-PP1α^ΔC (human, UniProt P62136 1-298); assay: split reporter
Chain of LgBiT-PP1α^ΔC (P62136 1-298, stated change not applied): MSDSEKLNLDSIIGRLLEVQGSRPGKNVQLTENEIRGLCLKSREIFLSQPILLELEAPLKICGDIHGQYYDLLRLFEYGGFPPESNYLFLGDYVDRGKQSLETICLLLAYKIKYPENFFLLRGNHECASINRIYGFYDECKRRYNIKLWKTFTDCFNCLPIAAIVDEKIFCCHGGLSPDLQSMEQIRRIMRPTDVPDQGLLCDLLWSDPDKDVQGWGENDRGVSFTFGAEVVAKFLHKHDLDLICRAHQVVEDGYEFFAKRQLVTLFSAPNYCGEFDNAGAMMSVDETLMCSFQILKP

Chain of His-tagged NanoLuc-PP1α-HaloTag sensor (PP1-WT) (P62136 whole entry): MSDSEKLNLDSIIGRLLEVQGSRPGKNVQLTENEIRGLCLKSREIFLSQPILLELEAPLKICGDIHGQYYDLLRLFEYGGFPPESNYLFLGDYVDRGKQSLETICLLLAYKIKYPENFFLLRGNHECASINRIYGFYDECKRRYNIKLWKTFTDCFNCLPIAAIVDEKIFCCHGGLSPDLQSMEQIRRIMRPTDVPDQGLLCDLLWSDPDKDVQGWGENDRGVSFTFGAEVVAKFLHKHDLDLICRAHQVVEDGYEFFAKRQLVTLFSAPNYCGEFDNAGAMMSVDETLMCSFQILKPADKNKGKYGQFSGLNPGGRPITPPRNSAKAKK
Chain of LgBiT-PP1α^WT (P62136 whole entry): as above

B1: HIS-R2-WT (natural protein)
chain: MAASTASHRPIKGILKNKTSTTSSMVASAEQPRGNVDEELSKKSQKWDEMNILATYHPADKDYGLMKIDEPSTPYHSMMGDDEDACSDTEATEAMAPDILARKLAAAEGLEPKYRIQEQESSGEEDSDLSPEEREKKRQFEMKRKLHYNEGLNIKLARQLISKDLHDDDEDEEMLETADGESMNTEESNQGSTPSDQQQNKLRSS
Does B1 bind [1]?
Result: binds

Does B1 bind (LgBiT-PP1α^WT)?
Result: binds

Does B1 bind (LgBiT-PP1α^ΔC)?
Result: binds

B2: HIS-ASPP1-(867–1090) (domain or fragment)
chain: RTNLKKPNSERTGHGLRVRFNPLALLLDASLEGEFDLVQRIIYEVEDPSKPNDEGITPLHNAVCAGHHHIVKFLLDFGVNVNAADSDGWTPLHCAASCNSVHLCKQLVESGAAIFASTISDIETAADKCEEMEEGYIQCSQFLYGVQEKLGVMNKGVAYALWDYEAQNSDELSFHEGDALTILRRKDESETEWWWARLGDREGYVPKNLLGLYPRIKPRQRTLA
Does B2 bind [1]?
Result: binds
